From the supplement of paper PMC10567573

B1: RPAIN (parent)
chain: ISEYEKSLQFDEKCLSIMLAEWEA
B2: PCMTD2 (parent)
chain: FFIRTSDSFDKFDFCEPSFVTGNC

Variants of: B1
Assay: protein stability index of a GFP-peptide fusion (GPS, HEK-293T) (PSI 1-6); higher = more stable
Conditions: c terminus: a fixed tail appended
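Also: lentivirally expressed fusions sorted by FACS into six bins by GFP to DsRed ratio, PSI derived from sequencing read proportions per bin multiplied by bin number.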

| Variant | protein stability index |
| --- | --- |
| E3C | 1.44 |
| E3L | 1.54 |
| L8V | 2.22 |
| L8G | 3.44 |
| L8E | 3.45 |
| Q9Y | 1.58 |
| W22R | 3.37 |
| W22T | 2.03 |
| W22N | 4.3 |
| W22D | 3.88 |
| Y4D | 2.12 |
| Y4A | 2.48 |
| Y4K | 2.1 |
| Y4C | 1.75 |
| Y4I | 2.15 |
| A24N | 2.32 |
| A24C | 1.99 |
| L15C | 2.66 |
| L15M | 2.2 |
| E5L | 2.02 |
| E5S | 1.82 |
| E5I | 1.75 |
| L19Q | 3.6 |
| L19T | 3.18 |
| L19D | 4.34 |
| E21Y | 1.93 |
| E21M | 1.9 |

| Variant | protein stability index |
| --- | --- |
| E21D | 2.27 |
| E21A | 2.12 |
| A20C | 1.77 |
| A20R | 1.25 |
| A20M | 2.49 |
| A20N | 1.44 |
| C14F | 2.38 |
| C14L | 1.44 |
| C14A | 1.9 |
| C14D | 2.16 |
| E23G | 4.39 |
| E23D | 1.62 |
| E23W | 2.83 |
| F10N | 2.9 |
| F10P | 3.43 |
| F10M | 2.45 |
| F10S | 3.08 |
| S2F | 1.7 |
| S2A | 2.2 |
| S2E | 1.16 |
| S2T | 1.91 |
| M18A | 1.86 |
| M18G | 3.33 |
| M18Q | 2.75 |
| K6H | 1.97 |
| K6W | 1.79 |
| K6A | 2.2 |

| Variant | protein stability index |
| --- | --- |
| K6R | 2.39 |
| I17R | 2.15 |
| I17K | 2.08 |
| I17Q | 2 |
| I17Y | 1.2 |
| I17S | 2.08 |
| I1Q | 2.64 |
| I1T | 3.12 |
| I1W | 1.26 |
| I1E | 2.04 |
| S7G | 1.67 |
| S7C | 2.46 |
| S7Y | 1.76 |
| S7I | 1.6 |
| K13V | 1.7 |
| K13D | 1.76 |
| K13A | 2.1 |
| S16T | 2.1 |
| S16Y | 2.83 |
| S16I | 2.84 |
| S16P | 2.85 |
| S16V | 1.88 |
| S16L | 2.1 |
| E12Q | 1.98 |
| E12N | 2.47 |

Variants of: B2
Assay: as above
Conditions: c terminus: a fixed tail appended

| Variant | protein stability index |
| --- | --- |
| F9H | 2.24 |
| F9Y | 2.82 |
| F9E | 1.9 |
| F9Q | 1.92 |
| F9G | 2.53 |
| F9W | 2.6 |
| F9N | 2.18 |
| F9C | 2.04 |
| F9V | 1.75 |
| F9I | 2.47 |
| F9D | 2.03 |
| F9L | 2.12 |
| F9R | 1.7 |
| F9T | 1.7 |
| F9K | 2.16 |
| F9S | 1.66 |
| F9P | 1.28 |
| F9A | 1.95 |
| F9M | 2.99 |
| K11T | 2.84 |
| K11L | 2.42 |
| K11R | 3.1 |
| K11S | 3.53 |
| K11W | 3.22 |
| K11C | 2.65 |
| K11E | 2.95 |

| Variant | protein stability index |
| --- | --- |
| K11N | 2.42 |
| K11I | 3.4 |
| K11Q | 3.58 |
| K11V | 3.4 |
| K11P | 2.72 |
| K11F | 3.16 |
| K11H | 2.24 |
| K11D | 2.86 |
| K11G | 2.57 |
| K11M | 4.28 |
| K11A | 2.13 |
| K11Y | 3.27 |
| S6D | 3.28 |
| S6G | 2.33 |
| S6I | 2.29 |
| S6Y | 2.48 |
| S6F | 2.43 |
| S6V | 2.23 |
| S6C | 1.99 |
| S6T | 3.34 |
| S6M | 2.53 |
| S6W | 2.61 |
| S6E | 1.99 |
| S6K | 2.59 |
| S6Q | 3.19 |
| S6N | 3.26 |

| Variant | protein stability index |
| --- | --- |
| S6A | 2.04 |
| S6H | 2.91 |
| S6P | 2.53 |
| S6R | 3.11 |
| F14C | 2.76 |
| F14G | 1.82 |
| F14L | 1.91 |
| F14M | 2.1 |
| F14Q | 1.89 |
| F14K | 1.99 |
| F14I | 2.31 |
| F14S | 1.84 |
| F14A | 2.31 |
| F14D | 2.42 |
| F14H | 1.94 |
| F14E | 2 |
| F14N | 2.27 |
| F14P | 2.55 |
| F14R | 2.37 |
| D13Q | 3.23 |
| D13V | 3.37 |
| D13H | 2.47 |
| D13S | 2.57 |
| D13N | 2.42 |
| D13T | 3.18 |
| D13R | 2.26 |

| Variant | protein stability index |
| --- | --- |
| D13I | 3.44 |
| D13M | 2.65 |
| D13A | 2.99 |
| D13E | 2.74 |
| D13C | 2.21 |
| D13P | 2.4 |
| D13G | 2.78 |
| D13F | 3.38 |
| D13K | 2.85 |
| D13L | 3.27 |
| D13Y | 1.6 |
| F1S | 2.31 |
| F1D | 2.41 |
| F1K | 2.4 |
| F1A | 1.82 |
| F1P | 2.6 |
| F1W | 2.04 |
| F1I | 1.81 |
| F1Q | 1.87 |
| F1C | 2.93 |
| F1E | 1.97 |
| F1N | 2.4 |
| F1Y | 2.39 |
| F1H | 2.19 |
| F1L | 2.4 |
| F1T | 1.8 |

| Variant | protein stability index |
| --- | --- |
| F1G | 2.28 |
| F1R | 2.42 |
| F1V | 2.15 |
| F1M | 2.32 |
| R4T | 3.27 |
| R4W | 4.04 |
| R4L | 2.8 |
| R4D | 2.08 |
| R4E | 2.12 |
| R4K | 1.99 |
| R4M | 4.34 |
| R4S | 2.39 |
| R4F | 2.52 |
| R4Y | 2.93 |
| R4H | 2.45 |
| R4G | 1.31 |
| R4C | 3.1 |
| R4P | 1.85 |
| R4I | 1.55 |
| R4Q | 1.74 |
| R4N | 1.65 |
| R4A | 3.21 |
| R4V | 2.33 |
| T5P | 3.1 |
| T5E | 2.14 |
| T5L | 2.48 |

| Variant | protein stability index |
| --- | --- |
| T5R | 1.82 |
| T5W | 2.53 |
| T5I | 3.08 |
| T5K | 2.38 |
| T5V | 3.03 |
| T5M | 2.69 |
| T5N | 1.75 |
| T5F | 2.61 |
| T5Q | 1.78 |
| T5S | 3.67 |
| T5D | 2.37 |
| T5Y | 2.88 |
| T5G | 1.92 |
| T5A | 3.25 |
| T5C | 2.77 |
| T5H | 2.39 |
| S8V | 4.76 |
| S8D | 1.95 |
| S8L | 3.06 |
| S8T | 1.61 |
| S8A | 2.85 |
| S8N | 2.13 |
| S8M | 1.94 |
| S8R | 2.44 |
| S8I | 2.54 |
| S8E | 1.91 |

| Variant | protein stability index |
| --- | --- |
| S8Q | 3.03 |
| S8P | 2.35 |
| S8C | 3.14 |
| S8H | 3.25 |
| S8K | 1.72 |
| S8W | 4 |
| S8F | 2.38 |
| S8Y | 3.02 |
| I3T | 2.1 |
| I3M | 1.98 |
| I3G | 2.18 |
| I3F | 2.17 |
| I3Y | 1.81 |
| I3A | 1.55 |
| I3V | 2.18 |
| I3H | 2 |
| I3Q | 1.96 |
| I3W | 2.9 |
| I3L | 1.73 |
| I3E | 2.04 |
| I3C | 1.81 |
| I3N | 1.98 |
| I3K | 2.07 |
| I3P | 1.9 |
| I3D | 2.56 |
| I3S | 1.8 |

| Variant | protein stability index |
| --- | --- |
| I3R | 2.45 |
| F2L | 3.25 |
| F2A | 2.1 |
| F2G | 2.41 |
| F2H | 1.89 |
| F2W | 3.73 |
| F2D | 2.71 |
| F2R | 1.65 |
| F2C | 1.92 |
| F2I | 2.55 |
| F2M | 1.81 |
| F2Y | 2.58 |
| F2K | 2.06 |
| F2Q | 2.06 |
| F2V | 3.17 |
| F2S | 2.01 |
| F2T | 1.76 |
| F2E | 2.15 |
| F2P | 2.13 |
| F2N | 2.35 |
| D7T | 3.2 |
| D7L | 2.31 |
| D7S | 3.69 |
| D7G | 2.55 |
| D7E | 3.48 |
| D7N | 2.56 |

| Variant | protein stability index |
| --- | --- |
| D7K | 1.88 |
| D7I | 3.18 |
| D7C | 2.8 |
| D7R | 1.98 |
| D7V | 2.77 |
| D7F | 3.74 |
| D7Y | 2.41 |
| D7H | 1.69 |
| D7W | 3.44 |
| D7A | 2.62 |
| D10V | 3.82 |
| D10E | 2.27 |
| D10T | 2.81 |
| D10I | 2.31 |
| D10M | 3.52 |
| D10R | 2.56 |
| D10S | 2.22 |
| D10P | 2.94 |
| D10H | 2.83 |
| D10N | 2.72 |
| D10Q | 2.54 |
| D10K | 3.06 |
| D10W | 3.23 |
| D10F | 3.53 |
| D10L | 2.67 |
| D10A | 2.7 |

| Variant | protein stability index |
| --- | --- |
| D10C | 3.08 |
| D10G | 2.61 |
| F12C | 2.74 |
| F12Q | 1.69 |
| F12D | 1.69 |
| F12N | 1.61 |
| F12H | 2.07 |
| F12K | 1.99 |
| F12V | 2.47 |
| F12S | 1.71 |
| F12R | 1.77 |
| F12Y | 2.79 |
| F12A | 2.4 |
| F12L | 3.58 |
| F12G | 2.05 |
| F12W | 3.92 |
| F12T | 2.22 |
| F12I | 2.05 |
| F12P | 1.61 |
| F12M | 2.05 |
| F12E | 1.92 |
